Where two headings read alike, the source gives them in different places.

In test [1] the target is T1, human CD137 on transfected CHO cells (CHO-huCD137) (human).
T1 construct: domain: transmembrane and intracellular part
The experiment in a line: flow cytometry on CHO-huCD137 cells; 95% confidence interval of the EC50. The procedure:
(§1) Binding and EC50 was determined using flow cytometric of CHO cells transfected with human CD137, cynomolgus CD137 or empty vector. The extracellular part of human or cynomolgus CD137 was fused to the transmembrane and intracellular part of human CD40 and cloned into pcDNA3.1. The vector was subsequently stably transfected into CHO cells. […] CD137-transfected and empty vector-transfected cells were incubated with CD137 antibodies for at least 1 h at 4° C. to saturate the binding. In order to minimize antibody internalization, 0.05% sodium azide was used in the incubation buffer and all work was performed on ice. The CD137 antibodies were detected using PE-conjugated anti-hIgG antibody (109-115-098, Jackson Immunoresearch laboratories), incubated for 30 min at 4° C. Directly after staining the cells were fixed with a paraformaldehyde solution (10× concentrate BD CellFIX, BD biosciences #340181). Cells were analyzed by flow cytometry using FACSVerse (BD Biosciences). The median fluorescence intensity (MFI) for each sample was determined and the dose response data was analysed using Graph Pad Prism.
(§2) MFI data was normalized for each antibody, where 0% is defined as the lowest value and 100% is the highest value in the dose titration for each antibody.
For orientation: Flow cytometry measures light scatter and fluorescence of single cells or particles in a stream.

Test [2] addresses T2, 1552: Human CD137 with mouse domains 2B, 3A and 3B (aa 64-118) (human; mouse, UniProt P20334 63-117).
T2 construct: Human/mouse chimera transiently expressed on FreeStyle 293-F cells
The experiment in a line: flow cytometry on transfected 293-F cells, human/mouse CD137 chimera. The procedure:
(§3) The ability of each antibody to bind to a panel of human/mouse CD137 chimeras expressed on the surface of transfected cells was analyzed by flow cytometry.
(§4) The chimeras were designed by exchanging domains or modules of the human CD137 with the corresponding mouse domain. Genes of CD137 human/mouse chimeras were synthesized (GenScript) and constructs cloned into pcDNA3.1 vector (Invitrogen) and transiently transfected into FreeStyle 293-F cells (Invitrogen). The transfected cells were incubated with CD137 antibodies and control antibodies, followed by incubation with anti-human IgG-PE (Jackson Immunoresearch) for detection and analyzed with FACS Verse (BD Biosciences). Binding to the different chimeric constructs was calculated as relative MFI compared to the binding of the isotype control, followed by normalization to the full-length human CD137 construct to minimize the effect of affinity differences between individual antibodies.

In test [3] the target is T3, 1551: Human CD137 with mouse domains 2A, 2B and 3A (aa 47-96) (human; mouse, UniProt P20334 46-95).
T3 construct: domain: domains 2A, 2B and 3A (aa 47-96); Human/mouse chimera transiently expressed on FreeStyle 293-F cells
T3 sequence (P20334 other isoform, or with tags, fused parts or gaps limits assumed): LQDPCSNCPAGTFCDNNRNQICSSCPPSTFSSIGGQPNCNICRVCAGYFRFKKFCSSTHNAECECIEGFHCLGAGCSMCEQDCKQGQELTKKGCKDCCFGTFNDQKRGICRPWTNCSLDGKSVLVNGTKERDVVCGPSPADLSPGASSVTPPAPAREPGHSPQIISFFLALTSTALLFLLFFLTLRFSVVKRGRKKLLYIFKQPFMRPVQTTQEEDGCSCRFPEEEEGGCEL
Described as above. The procedure: as §3, §4

Test [4] concerns the target T4, 1554: Human CD137 with mouse domains 3B, 4A and 4B (aa 97-159) (human; mouse, UniProt P20334 96-159).
T4 construct: domain: domains 3B, 4A and 4B (aa 97-159); Human/mouse chimera transiently expressed on FreeStyle 293-F cells
Described as above. The procedure:
as §3, §4

Test [5] has as its target T5, 1553: Human CD137 with mouse domains 3A, 3B and 4A (aa 87-133) (human; mouse, UniProt P20334 86-133).
T5 construct: domain: domains 3A, 3B and 4A (aa 87-133); Human/mouse chimera transiently expressed on FreeStyle 293-F cells
Described as above. The procedure:
as §3, §4

Test [6] addresses T6, 1550: Human CD137 with mouse domains 1, 2A and 2B (aa 24-86) (human; mouse, UniProt P20334 24-85).
T6 construct: domain: domains 1, 2A and 2B (aa 24-86); Human/mouse chimera transiently expressed on FreeStyle 293-F cells; Limits of the human pieces are worked out from the printed aa range
The test is described as above. The procedure: as §3, §4

For test [7], the target named is T7, 1555: Human CD137 with mouse domains 1 and 4B and region of unknown function (aa 24-46 and aa 139-186) (human; mouse, UniProt P20334 24-45; P20334 139-185).
T7 construct: Human/mouse chimera transiently expressed on FreeStyle 293-F cells
T7 sequence (P20334 other isoform, or with tags, fused parts or gaps limits assumed): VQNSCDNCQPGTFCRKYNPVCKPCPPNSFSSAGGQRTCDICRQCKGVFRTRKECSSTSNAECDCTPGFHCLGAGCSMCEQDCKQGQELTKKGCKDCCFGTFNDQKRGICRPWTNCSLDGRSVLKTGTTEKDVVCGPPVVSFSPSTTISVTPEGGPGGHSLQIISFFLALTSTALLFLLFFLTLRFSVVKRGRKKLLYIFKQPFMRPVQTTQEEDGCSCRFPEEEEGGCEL
The description is as above. The procedure: as §3, §4

Test [8] has as its target cynomolgus CD137 (Acro Biosystems #41B-C52H4) (cynomolgus, UniProt A9YYE7 24-186). Put plainly: Octet (BLI), antibody amine-coupled to ARG2 biosensor, soluble CD137 as analyte, 1:1 model. The procedure:
Materials and method CD137 affinity was determined using the Octet Red 96 platform (ForteBio). […] 7 2-fold serial dilutions of CD137 (Acro Biosystems #41B-H5227 and #41B-C52H4) from 100 nM was prepared in 1× kinetic buffer (ForteBio #18-1092). Association was measured for 180 s followed by dissociation for 180 s in 1× kinetic buffer. 10 mM Glycine pH 2.2 was used for regeneration.
Data generated was referenced by reference well subtraction (1188), the baseline was aligned with the y-axis, inter-step correlation by alignment against association was performed and the data was smoothed by a Savitzky-Golay filtering in the data analysis software (v.9.0.0.14). The processed data was fitted using a 1:1 Langmuir binding model with X² as a measurement of fitting accuracy.

For test [9], the target named is T8, human FcγRIIb (R&D Systems #1460-CD-050) (human, UniProt P31994 46-217, limits assumed).
T8 construct: Soluble analyte in the Octet assay
T8 sequence (looked up): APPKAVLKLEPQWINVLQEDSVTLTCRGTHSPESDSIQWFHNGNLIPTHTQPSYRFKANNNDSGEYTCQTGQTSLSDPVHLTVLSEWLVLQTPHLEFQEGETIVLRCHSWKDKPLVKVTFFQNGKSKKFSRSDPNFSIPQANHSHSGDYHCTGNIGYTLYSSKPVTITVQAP
Put plainly: Octet (BLI), antibody captured on FAB2G tips, soluble FcγR as analyte, 1:1 model. The text has this:
(§5) The processed data was fitted using a 1:1 Langmuir binding model with X² as a measurement of fitting accuracy.

Test [10] has as its target T9, human FcγRIIa (R&D Systems #1330-CD-050) (human, UniProt P12318 36-218, limits assumed).
T9 construct: Soluble analyte in the Octet assay
T9 sequence (looked up): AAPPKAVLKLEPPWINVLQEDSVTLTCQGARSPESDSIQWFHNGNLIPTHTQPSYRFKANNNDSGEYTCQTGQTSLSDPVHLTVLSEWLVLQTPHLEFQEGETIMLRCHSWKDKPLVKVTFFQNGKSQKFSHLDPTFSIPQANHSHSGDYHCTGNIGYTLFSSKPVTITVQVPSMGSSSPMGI
Described as above.
Description: as §5

Test [11] concerns the target T1, human CD137 on transfected CHO cells …. Put plainly: flow cytometry on CHO-huCD137 cells; 95% confidence interval of the EC50. The procedure: as §1, §2
The source holds these as a separate data set.

The target of test [12] is T10, cynomolgus CD137 on transfected CHO cells (CHO-cyCD137) (cynomolgus (Macaca fascicularis); human).
T10 construct: extracellular domain;domain: transmembrane and intracellular part; also called cyno CD137
T10 sequence (P25942 other isoform, or with tags, fused parts or gaps): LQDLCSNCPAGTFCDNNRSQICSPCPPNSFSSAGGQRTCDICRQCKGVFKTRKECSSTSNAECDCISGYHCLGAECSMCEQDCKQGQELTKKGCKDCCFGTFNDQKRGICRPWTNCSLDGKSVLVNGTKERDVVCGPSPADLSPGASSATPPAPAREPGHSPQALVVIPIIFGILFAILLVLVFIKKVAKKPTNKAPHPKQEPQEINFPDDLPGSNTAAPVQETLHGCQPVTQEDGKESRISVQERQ
Put plainly: flow cytometry on CHO-cyCD137 cells; 95% confidence interval of the EC50.

The target in test [13] is T10, cynomolgus CD137 on transfected CHO …. The description is as above. The procedure: as §1, §2
The source holds these as a separate data set.

T1 sequence (P25942 other isoform, or with tags, fused parts or gaps limits assumed): as the sequence (P25942 other isoform, or with tags, fused parts or gaps) above, with L4P, S19N, K50R, I66T, S67P, Y69F, E75G, A149V counted along it
T2 sequence (P20334 other isoform, or with tags, fused parts or gaps limits assumed): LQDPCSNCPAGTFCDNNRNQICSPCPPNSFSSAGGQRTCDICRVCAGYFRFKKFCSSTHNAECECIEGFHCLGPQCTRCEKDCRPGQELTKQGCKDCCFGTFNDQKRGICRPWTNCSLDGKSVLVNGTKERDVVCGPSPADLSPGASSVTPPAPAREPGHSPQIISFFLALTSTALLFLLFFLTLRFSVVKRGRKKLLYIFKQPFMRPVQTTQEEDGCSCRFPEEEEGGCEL
T6 sequence (P20334 other isoform, or with tags, fused parts or gaps limits assumed): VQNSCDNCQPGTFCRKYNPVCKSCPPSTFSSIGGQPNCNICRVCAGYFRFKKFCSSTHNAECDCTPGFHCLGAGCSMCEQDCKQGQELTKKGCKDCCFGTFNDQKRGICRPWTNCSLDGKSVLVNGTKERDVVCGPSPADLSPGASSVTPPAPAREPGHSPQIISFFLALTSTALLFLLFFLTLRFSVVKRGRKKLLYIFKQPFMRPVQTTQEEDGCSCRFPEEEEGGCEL
T4 sequence (P20334 other isoform, or with tags, fused parts or gaps limits assumed): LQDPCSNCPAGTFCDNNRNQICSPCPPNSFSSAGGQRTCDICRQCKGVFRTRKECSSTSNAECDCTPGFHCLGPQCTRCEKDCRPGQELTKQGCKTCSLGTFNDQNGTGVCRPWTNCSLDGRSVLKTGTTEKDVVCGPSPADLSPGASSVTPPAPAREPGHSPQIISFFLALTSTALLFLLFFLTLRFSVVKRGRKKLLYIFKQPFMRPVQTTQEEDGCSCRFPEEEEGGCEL
Sequence of cynomolgus CD137 (Acro Biosystems #41B-C52H4) (A9YYE7 entry or part of it): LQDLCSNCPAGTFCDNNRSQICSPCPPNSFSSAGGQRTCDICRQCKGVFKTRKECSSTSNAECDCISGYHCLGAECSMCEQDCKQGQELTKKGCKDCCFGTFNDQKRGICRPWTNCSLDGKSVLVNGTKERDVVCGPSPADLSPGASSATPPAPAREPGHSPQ
T5 sequence (P20334 other isoform, or with tags, fused parts or gaps limits assumed): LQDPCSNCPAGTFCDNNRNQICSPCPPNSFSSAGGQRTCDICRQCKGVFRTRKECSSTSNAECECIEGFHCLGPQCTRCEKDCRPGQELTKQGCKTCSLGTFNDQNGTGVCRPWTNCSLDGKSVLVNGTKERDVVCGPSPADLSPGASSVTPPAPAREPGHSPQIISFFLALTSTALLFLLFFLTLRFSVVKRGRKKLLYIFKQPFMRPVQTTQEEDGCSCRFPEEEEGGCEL

B1: REF2 (antibody)
chain 1: not shown
chain 2: DIVMTQSPDSLSVSLGERATINCRASKSVDSYGNSFMHWYQQKPGQPPKLLIYLASNLESGVPDRFSGSGSGTDFTLTISSLQAEDVAVYYCQQNNEDPRTFGGGTKVEIKRTVAAPSVFIFPPSDEQLKSGTASVVCLLNNFYPREAKVQWKVDNALQSGNSQESVTEQDSKDSTYSLSSTLTLSKADYEKHKVYACEVTHQGLSSPVTKSFNRGEC
Usually EC50 stands for the midpoint of the concentration-response curve. A low value points to a more potent agent. Usually Kd stands for the constant that tells how readily two partners part at equilibrium. Regarding B1, the EC50 in test [1] lay in the range of 0.16 to 0.27 nM; in test [11], 0.21 to 0.31 µg/mL; in test [12] it was 0.13 to 0.24 µg/mL; in [13] it was 0.41 to 0.56 nM. Besides, the “MFI antibody/isotype control, normalized to full-length human CD137” value turned out to be 0.19 in [2]; 0.37 in test [3]; 0.16 in test [4]; 0.17 in test [5]; 0.22 in [6]; 0.26 in [7]. The Kd amounted to 10 nM in test [8], 2700 nM in [9] and 587 nM in test [10].
